Assay [1] deals with plasma-derived coagulation Factor IXa (human) (UniProt P00740). The experiment in a line: cell-based or functional assay.
For assay [2] the target is unchanged. The experiment in a line: FXa generation assay; FIXa stimulation by the one-armed antibody at eight concentrations, fitted with the quadratic binding equation.

Sequence of UniProt P00740 (P00740 47-191, chain 1 of 2): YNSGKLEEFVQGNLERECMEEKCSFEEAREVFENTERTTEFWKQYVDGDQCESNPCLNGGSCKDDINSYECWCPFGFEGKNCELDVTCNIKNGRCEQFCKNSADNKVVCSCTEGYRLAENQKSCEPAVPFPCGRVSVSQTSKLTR
Sequence of UniProt P00740 (P00740 227-461, chain 2 of 2): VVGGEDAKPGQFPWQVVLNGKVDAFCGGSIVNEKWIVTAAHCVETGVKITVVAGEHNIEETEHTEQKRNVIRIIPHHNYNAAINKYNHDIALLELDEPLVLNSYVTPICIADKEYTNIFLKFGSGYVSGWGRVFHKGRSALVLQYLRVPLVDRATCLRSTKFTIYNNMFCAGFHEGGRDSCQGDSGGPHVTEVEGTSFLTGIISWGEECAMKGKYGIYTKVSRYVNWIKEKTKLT

In general, Kd refers to a measure of binding affinity in units of concentration. In the case of “monovalent one-armed (OA) version of the anti-FIXa antibody of emicizumab (ACE910)”, the Stimulation Index (FXa generation assay; estimated at full FIXa saturation) in assay [1] was 1370 fold. In assay [2], the Kd turned out to be 1100 nM.

B1: monovalent one-armed (OA) antibody of anti-FIX(a) mAb1 (antibody, V domains shown, part only)
VH: EVQLVESGGGLVQPGRSLRLSCAASGFTFHDYAMHWVRQVPGKGLEWVSGISWRGDIGGYVKSVKGRFTISRDNAKNSLYLQMNSLRAEDTALYYCVKSYGSGSFYNAFDSWGQGTLVTVSS
VL: DIQMTQSPSTLSASVGDRVTITCRASQSISSWLAWYQQKPGKAPKFLIYKGSKADRGTPSRFSGSGSGTEFTLTISSLQPDDFATYYCLEYESYIRTFGQGTKVEIK
modifications: constant regions and truncated heavy chain not given
On to B1, for which, in assay [1], the Stimulation Index (FXa generation assay; 1599 nM OA antibody) was 9840 fold.

B2: monovalent one-armed (OA) antibody of anti-FIX(a) mAb8 (antibody, V domains shown, part only)
VH: EVQLVESGGGLVQPGRSLRLSCAASGFTFHDYAMHWVRQVPGKGLEWVSGISWRGDIGGYVKSVKGRFTISRDNAKNSLYLQMNSLRAEDTALYYCVKSYGSGSFYNAFDSWGQGTLVTVSS
VL: DIQMTQSPSTLSASVGDRVTITCRASQSISSWLAWYQQKPGKAPKFLIYKAEKLDRGTPSRFSGSGSGTEFTLTISSLQPDDFATYYCLEYESYIRTFGQGTKVEIK
modifications: constant regions and truncated heavy chain not given
Regarding B2, the Stimulation Index (FXa generation assay; 1276 nM OA antibody) in assay [1] is 10100 fold.

B3: monovalent one-armed (OA) antibody of anti-FIX(a) mAb6 (antibody, V domains shown, part only)
VH: EVQLVESGGGLVQPGRSLRLSCAASGFTFHDYAMHWVRQVPGKGLEWVSGISWRGDIGGYVKSVKGRFTISRDNAKNSLYLQMNSLRAEDTALYYCVKSYGSGSFYNAFDSWGQGTLVTVSS
VL: DIQMTQSPSTLSASVGDEVTITCRASQSISSWLAWYQQKPGKAPKFLIYKGSKLDRGTPSRFSGSGSGTEFTLTISSLQPDDFATYYCLEYSSYIRTFGQGTKVEIK
modifications: constant regions and truncated heavy chain not given
In turn, B3 had a Stimulation Index (FXa generation assay; 3547 nM OA antibody) in assay [1] of 13500 fold.

B4: monovalent one-armed (OA) antibody of anti-FIX(a) mAb5 (antibody, V domains shown, part only)
VH: EVQLVESGGGLVQPGRSLRLSCAASGFTFHDYAMHWVRQVPGKGLEWVSGISWRGDIGGYVKSVKGRFTISRDNAKNSLYLQMNSLRAEDTALYYCVKSYGSGSFYNAFDSWGQGTLVTVSS
VL: DIQMTQSPSTLSASVGDEVTITCRASQSISSWLAWYQQKPGKAPKFLIYKGEKLDRGTPSRFSGSGSGTEFTLTISSLQPDDFATYYCLEYSSYIRTFGQGTKVEIK
modifications: constant regions and truncated heavy chain not given
B4 yielded a Stimulation Index (FXa generation assay; 1463 nM OA antibody) in assay [1] of 11200 fold.

B5: monovalent one-armed (OA) antibody of anti-FIX(a) mAb3 (antibody, V domains shown, part only)
VH: EVQLVESGGGLVQPGRSLRLSCAASGFTFHDYAMHWVRQVPGKGLEWVSGISWRGDIGGYVKSVKGRFTISRDNAKNSLYLQMNSLRAEDTALYYCVKSYGSGSFYNAFDSWGQGTLVTVSS
VL: DIQMTQSPSTLSASVGDRVTITCRASQSISSWLAWYQQKPGKAPKFLIYKGSKTDRGTPSRFSGSGSGTEFTLTISSLQPDDFATYYCLEYESYIRTFGQGTKVEIK
modifications: constant regions and truncated heavy chain not given
Molecule B5 gave a Stimulation Index (FXa generation assay; 749 nM OA antibody) in assay [1] of 8650 fold.

B6: monovalent one-armed (OA) antibody of anti-FIX(a) mAb7 (antibody, V domains shown, part only)
VH: EVQLVESGGGLVQPGRSLRLSCAASGFTFHDYAMHWVRQVPGKGLEWVSGISWRGDIGGYVKSVKGRFTISRDNAKNSLYLQMNSLRAEDTALYYCVKSYGSGSFYNAFDSWGQGTLVTVSS
VL: DIQMTQSPSTLSASVGDEVTITCRASQSISSWLAWYQQKPGKAPKFLIYKAEKLDRGTPSRFSGSGSGTEFTLTISSLQPDDFATYYCLEYESYIRTFGQGTKVEIK
modifications: constant regions and truncated heavy chain not given
The molecule B6 yielded a Stimulation Index (FXa generation assay; 851 nM OA antibody) in assay [1] of 8730 fold.

B7: monovalent one-armed (OA) antibody of anti-FIX(a) mAb4 (antibody, V domains shown, part only)
VH: EVQLVESGGGLVQPGRSLRLSCAASGFTFHDYAMHWVRQVPGKGLEWVSGISWRGDIGGYVKSVKGRFTISRDNAKNSLYLQMNSLRAEDTALYYCVKSYGSGSFYNAFDSWGQGTLVTVSS
VL: DIQMTQSPSTLSASVGDRVTITCRASQSISSWLAWYQQKPGKAPKFLIYKSEKLDRGTPSRFSGSGSGTEFTLTISSLQPDDFATYYCLEYESYIRTFGQGTKVEIK
modifications: constant regions and truncated heavy chain not given
As for B7, the Stimulation Index (FXa generation assay; 1217 nM OA antibody) in assay [1] came to 10500 fold.

B8: monovalent one-armed (OA) antibody of anti-FIX(a) mAb2 (antibody, V domains shown, part only)
VH: EVQLVESGGGLVQPGRSLRLSCAASGFTFHDYAMHWVRQVPGKGLEWVSGISWRGDIGGYVKSVKGRFTISRDNAKNSLYLQMNSLRAEDTALYYCVKSYGSGSFYNAFDSWGQGTLVTVSS
VL: DIQMTQSPSTLSASVGDRVTITCRASQSISSWLAWYQQKPGKAPKFLIYKGSKQDRGTPSRFSGSGSGTEFTLTISSLQPDDFATYYCLEYSSYIRTFGQGTKVEIK
modifications: constant regions and truncated heavy chain not given
Consider B8, for which the Stimulation Index (FXa generation assay; 5640 nM OA antibody) in assay [1] was 14200 fold.

The values are drawn from patent publication US20250376538A1.
